Measured values reported in publication PMC11162792 (Nucleic Acids Research, 2023).

T1: PEDV nsp12 (porcine epidemic diarrhea virus (PEDV), UniProt P0C6Y4)
T1 sequence: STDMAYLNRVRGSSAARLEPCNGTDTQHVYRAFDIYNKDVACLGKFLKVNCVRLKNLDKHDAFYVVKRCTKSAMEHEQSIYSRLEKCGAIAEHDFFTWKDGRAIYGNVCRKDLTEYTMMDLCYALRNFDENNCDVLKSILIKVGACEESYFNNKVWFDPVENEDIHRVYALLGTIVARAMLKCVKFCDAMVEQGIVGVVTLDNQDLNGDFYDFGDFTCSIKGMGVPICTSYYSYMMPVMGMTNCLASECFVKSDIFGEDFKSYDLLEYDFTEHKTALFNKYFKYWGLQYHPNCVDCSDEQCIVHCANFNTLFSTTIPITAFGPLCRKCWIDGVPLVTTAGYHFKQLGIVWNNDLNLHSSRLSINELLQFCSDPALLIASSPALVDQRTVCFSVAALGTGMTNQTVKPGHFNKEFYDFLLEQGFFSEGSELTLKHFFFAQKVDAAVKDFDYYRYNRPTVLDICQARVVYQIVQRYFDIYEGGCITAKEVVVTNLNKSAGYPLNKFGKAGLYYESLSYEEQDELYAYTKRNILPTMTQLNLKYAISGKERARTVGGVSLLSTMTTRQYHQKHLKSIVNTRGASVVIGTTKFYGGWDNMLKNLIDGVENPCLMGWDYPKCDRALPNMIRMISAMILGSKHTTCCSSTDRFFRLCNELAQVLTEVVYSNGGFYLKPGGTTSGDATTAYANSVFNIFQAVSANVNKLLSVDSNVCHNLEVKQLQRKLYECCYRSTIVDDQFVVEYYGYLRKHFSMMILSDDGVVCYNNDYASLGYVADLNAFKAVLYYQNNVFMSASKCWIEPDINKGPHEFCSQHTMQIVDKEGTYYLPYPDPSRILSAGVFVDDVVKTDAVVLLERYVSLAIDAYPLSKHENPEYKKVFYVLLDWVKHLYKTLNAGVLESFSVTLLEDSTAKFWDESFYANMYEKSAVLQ


Assays:
[1] = biological target: PEDV nsp12-A382R (porcine epidemic diarrhea virus (PEDV)); experiment: native MS
[2] = biological target: T1, PEDV nsp12; experiment: native MS
[3] = biological target: PEDV nsp12 (RdRp);PEDV nsp7;PEDV nsp8 (Porcine epidemic diarrhea virus …, UniProt P0C6Y4;P0C6Y4;P0C6Y4 4101-5027;3580-3662;3663-3857, ||); experiment: native mass spectrometry

Molecule | stoichiometry N [2] | also measured
PEDV nsp12-A382R (enzyme) |  | stoichiometry N [1]: 2
PEDV nsp7 (natural protein) SKLTDIKCSNVVLLGCLSSMNVSANSTEWAYCVDLHNKINLCNDPEKAQEMLLALLAFFLSKNSAFGLDDLLESYFNDNSMLQ | 1 | 
PEDV nsp8 (natural protein) SVASTYVGLPSYVIYENARQQYEDAVNNGSPPQLVKQLRHAMNVAKSEFDREASTQRKLDRMAEQAAAQMYKEARAVNRKSKVVSAMHSLLFGMLRRLDMSSVDTILNLAKDGVVPLSVIPAVSATKLNIVTSDIDSYNRIQREGCVHYAGTIWNIIDIKDNDGKVVHVKEVTAQNAESLSWPLVLGCERIVKLQ | 2 | 
Pair 1 primer/template RNA (short) (dsRNA) RNA 1: CAUUCUCCUAAGAAGCUAUUAAAAUCACA RNA 2: AAAAAGGGUUGUGAUUUUAAUAGCUUCUUAGGAGAAUG |  | binding result [3]: binds
